A word on the koff: it is the rate constant with which the complex falls apart. Lower therefore signals slow dissociation.

B1: human IL-2Rβγ heterodimeric Fc fusion (knobs-into-holes), biotinylated (Fc fusion)
chain 1: AVNGTSQFTCFYNSRANISCVWSQDGALQDTSCQVHAWPDRRRWNQTCELLPVSQASWACNLILGAPDSQKLTTVDIVTLRVLCREGVRWRVMAIQDFKPFENLRLMAPISLQVVHVETHRCNISWEISQASHYFERHLEFEARTLSPGHTWEEAPLLTLKQKQEWICLETLTPDTQYEFQVRVKPLQGEFTTWSPWSQPLAFRTKPAALGKDT
chain 2: LNTTILTPNGNEDTTADFFLTTMPTDSLSVSTLPLPEVQCFVFNVEYMNCTWNSSSEPQPTNLTLHYWYKNSDNDKVQKCSHYLFSEEITSGCQLQKKEIHLYQTFVVQLQDPREPRRQATQMLKLQNLVIPWAPENLTLHKLSESQLELNWNNRFLNHCLEHLVQYRTDWDHSWTEQSVDYRHKFSLPSVDGQKRYTFRVRSRFNPLCGSAQHWSEWSHPIHWGSNTSKENPFLFALEA
B2: cynomolgus IL-2Rβγ heterodimeric Fc fusion (knobs-into-holes), biotinylated (Fc fusion)
chain 1: B1 chain 1 with Q7R, A66T, T74A, L83M, V92M, E127K, L158M
chain 2: B1 chain 2 with T14A, A16T, T22S, H141R, T228S
B3: murine IL-2Rβγ heterodimeric Fc fusion (knobs-into-holes), biotinylated (Fc fusion)
chain 1: AVKNCSHLECFYNSRANVSCMWSHEEALNVTTCHVHAKSNLRHWNKTCELTLVRQASWACNLILGSFPESQSLTSVDLLDINVVCWEEKGWRRVKTCDFHPFDNLRLVAPHSLQVLHIDTQRCNISWKVSQVSHYIEPYLEFEARRRLLGHSWEDASVLSLKQRQQWLFLEMLIPSTSYEVQVRVKAQRNNTGTWSPWSQPLTFRTRPADPMKE
chain 2: WSSKVLMSSANEDIKADLILTSTAPEHLSAPTLPLPEVQCFVFNIEYMNCTWNSSSEPQATNLTLHYRYKVSDNNTFQECSHYLFSKEITSGCQIQKEDIQLYQTFVVQLQDPQKPQRRAVQKLNLQNLVIPRAPENLTLSNLSESQLELRWKSRHIKERCLQYLVQYRSNRDRSWTELIVNHEPRFSLPSVDELKRYTFRVRSRYNPICGSSQQWSKWSQPVHWGSHTVEENPSLFALEA
B4: cynomolgus IL-2Rα, monomeric, his-tagged (receptor)
chain: ELCDDDPPKITHATFKAVAYKEGTMLNCECKRGFRRIKSGSPYMLCTGNSSHSSWDNQCQCTSSAARNTTKQVTPQPEEQKERKTTEMQSQMQLADQVSLPGHCREPPPWENEATERIYHFVVGQTVYYQCVQGYRALHRGPAESVCKMTHGKTRWTQPQLICTGETEPSQFPGEEEPQASPDGLPESETSRLVTTTDFRIQTEVAATMETFIFTTEYQ
B5: murine IL-2Rα, monomeric, his-tagged (receptor)
chain: ELCLYDPPEVPNATFKALSYKNGTILNCECKRGFRRLKELVYMRCLGNSWSSNCQCTSNSHDKSRKQVTAQLEHQKEQQTTTDMQKPTQSMHQENLTGHCREPPPWKHEDSKRIYHFVEGQSVHYECIPGYKALQRGPAISICKMKCGKTGWTQPQLTCVDEREHHRFLASEESQGSRNSSPESETSCPITTTDFPQPTETTAMTETFVLTMEYKVAVASCLFLLISILLLSGLTWQHRWRKSRRTI
B6: human IL-2Rα, monomeric, his-tagged (receptor)
chain: ELCDDDPPEIPHATFKAMAYKEGTMLNCECKRGFRRIKSGSLYMLCTGNSSHSSWDNQCQCTSSATRNTTKQVTPQPEEQKERKTTEMQSPMQPVDQASLPGHCREPPPWENEATERIYHFVVGQMVYYQCVQGYRALHRGPAESVCKMTHGKTRWTQPQLICTGEMETSQFPGEEKPQASPEGRPESETSCLVTTTDFQIQTEMAATMETSIFTTEYQVAVAGCVFLLISVLLLSGLTWQRRQRKSRRTI

Residue numbers refer to the chain shown, from its start.

The target in the first test is T1, IgG-IL-2 (monovalent fusion of wild-type human IL-2 to a non-targeted, effector-silent human IgG1) (human, UniProt P60568 21-153). The test is described as follows: SPR. (In general: SPR reads the build-up and loss of mass on a sensor chip optically.)
In turn, B1 had a koff of 3.8e-05 s⁻¹.

For the molecule B2, the off-rate (koff) stood at 0.00011 s⁻¹.

As for B3, the off-rate constant (koff) was found to be 0.00065 s⁻¹. Against the preceding molecule, the koff is about 5.9-fold higher.

A further test addresses T2, IgG-(IL-2)2 (bivalent fusion of two wild-type human IL-2 to a non-targeted, effector-silent human IgG1) (human, UniProt P60568 21-153). The test is described as follows: SPR.
B1 registered a koff of 8.1e-06 s⁻¹.

B2 returned a koff of 5.3e-05 s⁻¹.

B3 registered a koff of 9.3e-05 s⁻¹.

A further test has as its target T1, IgG-IL-2 (monovalent fusion of …). The test is described as follows: SPR; steady state.
For the molecule B4, the Kd came out at 30 nM.

On to B5, for which the Kd was 110 nM.

As for B6, the Kd amounted to 15 nM.

For a further test, the target named is T2, IgG-(IL-2)2 (bivalent fusion of two …). The test is described as follows: SPR; steady state.
As to B4, the Kd was 15 nM.

For B5, the Kd amounted to 30 nM.

As for B6, the Kd was 5 nM.

The values above are taken from PMC4298360 (2015).
